The target of one experiment is GRB2 (UniProt P62993). Nature of the experiment: anti-Myc co-IP, anti-GRB2 immunoblot. To be noted: reference: CD22-Myc wild type; sites Y807. A general note: A western blot detects proteins with antibodies after separation by electrophoresis.
The next experiment addresses ANKLE2. Nature of the experiment: anti-FLAG co-immunoprecipitation, SILAC LC-MS. To be noted: Ramos PTP1B KO cells; n = 3; read off a plot; scale: log10 SILAC ratio.
A further experiment deals with ARHGAP12 iso 3. Nature of the experiment: anti-FLAG co-immunoprecipitation, SILAC LC-MS. The note with it: Ramos PTP1B KO cells; n = 3; read off a plot; scale: log10 SILAC ratio.
Another experiment addresses CDC20. Nature of the experiment: anti-FLAG co-immunoprecipitation, SILAC LC-MS. The note with it: Ramos PTP1B KO cells; n = 3; read off a plot; scale: log10 SILAC ratio.
For another experiment, the target named is PTRH2. Description: anti-FLAG co-immunoprecipitation, SILAC LC-MS. The note with it: Ramos PTP1B KO cells; n = 3; read off a plot; scale: log10 SILAC ratio.
The target in the next experiment is TNK2. Nature of the experiment: anti-FLAG co-immunoprecipitation, SILAC LC-MS. To be noted: Ramos PTP1B KO cells; n = 3; read off a plot; scale: log10 SILAC ratio.
In a further experiment the target is ARHGAP12 iso 2. Nature of the experiment: anti-FLAG co-immunoprecipitation, SILAC LC-MS. The note with it: Ramos PTP1B KO cells; n = 3; read off a plot; scale: log10 SILAC ratio.
For experiment [1], the target named is intersectin-2 (ITSN2) [human (endogenous in Ramos)]. Description: anti-FLAG co-immunoprecipitation, SILAC LC-MS. To be noted: Ramos PTP1B KO cells; n = 3; read off a plot; scale: log10 SILAC ratio.

For CD22 (from UniProt P20273) Y807F, in the experiment with GRB2, the “binding against the reference” value is “lost”.

For the substance “FLAG-PTP1B WT (protein tyrosine phosphatase 1B) (from UniProt P18031) D181A; Y46F”, the enrichment with ANKLE2 came to 0.97; with ARHGAP12 iso 3, 1.2; with CDC20, 0.88; with PTRH2, 1.4; with TNK2, 0.6; in the experiment with ARHGAP12 iso 2 it was 1.6.

Turning to “FLAG-PTP1B WT (protein tyrosine phosphatase 1B) mutant D181A; Y46F [not stated] / intersectin-2 (ITSN2) [human (endogenous in Ramos)] chain 1 Y46F, chain 1 D181A”, the enrichment in experiment [1] came to 0.5.
